Test results from patent US20110165145A1 (published 2011).

Key:
[1] = target: insulin-like growth factor I (IGF-I) (UniProt P05019 49-118); assay: cell-based or functional assay
[2] = target: T1, insulin-like growth factor II (IGF-II), amino acids 1-67 (human, UniProt P01344 25-91); assay: SPR (Flexchip), Fab, 1st of duplicate
T1 construct: recombinant; also called IGF-II (67aa); IGF2

[3] = target: T2, IGF-IIE (amino acids 1-104 of pro-IGF-II) (human, UniProt P01344 25-128); assay: SPR (Flexchip), Fab, 1st of duplicate
T2 construct: Biotinylated in the selections; also called IGF-IIE (104aa)

[4] = target: T1, insulin-like growth factor II (IGF-II), …; assay: competition SPR (BIACORE T100), affinity in solution, free ligand read on huIR-A ECD; measurement 1
Protocol: (§1) Competition SPR (BIACORE®) was performed under conditions of partially mass-transport limited conditions according to previously described methodology (Nieba et al., 1996). Approximately 16,700 relative response units (RU) of huIR-A (-exon11) ectodomain was coupled by standard amine chemistry to a BIACORE® CM5 chip sensor. Uncoated flow-cell surface was used as a reference. […] Regeneration of the surface was achieved by injection of 30 ul NaCltrate/NaCl pH 4.5. […] These Req estimates were subsequently plotted against total concentrations of Fab used and the resulting inhibition curve was utilised to calculate dissociation constant (KD).

[5] = target: T2, IGF-IIE (amino acids 1-104 of …); assay: as above
Protocol: as §1

[6] = target: T1, insulin-like growth factor II (IGF-II), …; assay: cell-based or functional assay
[7] = target: T2, IGF-IIE (amino acids 1-104 of …); assay: cell-based or functional assay
[8] = target: T1, insulin-like growth factor II (IGF-II), …; assay: SPR (Flexchip), Fab, 2nd of duplicate
[9] = target: T2, IGF-IIE (amino acids 1-104 of …); assay: SPR (Flexchip), Fab, 2nd of duplicate
[10] = target: T1, insulin-like growth factor II (IGF-II), …; assay: competition SPR (BIACORE T100), affinity in solution, free ligand read on huIR-A ECD; measurement 2
Protocol: as §1

[11] = target: T2, IGF-IIE (amino acids 1-104 of …); assay: as above
Protocol: as §1

[12] = target: T1, insulin-like growth factor II (IGF-II), …; assay: SPR, IgG on Protein G', then ligand, then BP; competitor BP2; 0 = no significant competition, 5 = competes strongly
Protocol: (§2) BIACORE® T100 and a CM5 chip coated with Protein G were utilised to set up following assay. Approximately 1000 RU of Protein G′ was immobilized on a CM5 chip using standard amine chemistry immobilization method.
(§3) 4) Protein G′ surface was finally regenerated by injection of 10 mM Glycine pH 1.5-injected at 30 ul/min for 60 sec.

[13] = target: T2, IGF-IIE (amino acids 1-104 of …); assay: as above
Protocol: as §2, §3

[14] = target: T1, insulin-like growth factor II (IGF-II), …; assay: SPR, IgG on Protein G', then ligand, then BP; competitor BP4; 0 = no significant competition, 5 = competes strongly
Protocol: as §2, §3

[15] = target: T2, IGF-IIE (amino acids 1-104 of …); assay: as above
Protocol: as §2, §3

T1 sequence (P01344 25-91): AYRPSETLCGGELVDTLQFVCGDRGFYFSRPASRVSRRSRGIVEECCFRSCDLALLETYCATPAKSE
T2 sequence (P01344 25-128): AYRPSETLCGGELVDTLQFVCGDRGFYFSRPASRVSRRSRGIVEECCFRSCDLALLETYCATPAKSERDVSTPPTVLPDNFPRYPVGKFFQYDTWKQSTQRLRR
Chain of insulin-like growth factor I (IGF-I) (P05019 49-118 limits assumed): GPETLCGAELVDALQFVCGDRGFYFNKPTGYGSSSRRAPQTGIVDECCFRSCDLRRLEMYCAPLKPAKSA

Binder	IGF-I stimulated Ba/F3 cell proliferation, sFab at 50 µg/ml [1] [% inhibition]	Kd [2] [nM]	Kd [3] [nM]	Kd [4] [nM]	Kd [5] [nM]	Kd [8] [nM]	competition score [12] [score 0-5]	competition score [13] [score 0-5]	competition score [14] [score 0-5]	competition score [15] [score 0-5]	also measured
M0068-E03 Fab (Fab, V domains shown, soluble Fab (sFab); heavy constant part carries His6 and myc tags; also called R0032-C01) VH: EVQLLESGGGLVQPGGSLRLSCAASGFTFSEYVMAWVRQAPGKGLEWVSSIVSSGGYTKYADSVKGRFTISRDNSKNTLYLQMNSLRAEDTAVYYCAKDMTYSGDAFDVWGQGTMVTVSS VL: DIQMTQSPSSLSASVGDRVTITCRASQSINTYLNWYQQKPGKAPKVLIHAASTLESGVPSRFSGSGSATEFTLTISSLQPEDFATFYCQQSYSVPFTFGPGTRLSSKR	~30	0.93	0.66	–	–	–	–	–	–	–	IC50, IGF-II stimulated Ba/F3 cell proliferation (MTS) [6]: 2.27 µg/mL; IC50, IGF-IIE stimulated Ba/F3 cell proliferation (MTS) [7]: 5.74 µg/mL
M0072-C06 Fab (Fab, V domains shown, soluble Fab (sFab); also called R0032-A09) VH: EVQLLESGGGLVQPGGSLRLSCAASGFTFSAYIMTWVRQAPGKGLEWVSSISPSGGYTVYADSVKGRFTISRDNSKNTLYLQMNSLRAEDTAVYYCARDSGFGDPFDYWGQGTMVTVSS VL: DIQMTQSPSSLSASVGDRVTITCRASQSIRNYLNWYQQKPGKAPKLLIYAASKLEDGVPSRFSGSGTGTDFTLTIRSLQPEDFASYFCQQSYSSPGITFGPGTKVEIKR	~30	5.2	0.52	1.64	3.95	0.7	–	–	–	–	Kd [10]: 2.52 nM; Kd [11]: 1.05 nM; IC50, IGF-II stimulated Ba/F3 cell proliferation (MTS) [6]: 5.12 µg/mL; IC50, IGF-IIE stimulated Ba/F3 cell proliferation (MTS) [7]: 2.3 µg/mL
M0072-E03 Fab (Fab, V domains shown, soluble Fab (sFab); also called R0032-C03) VH: EVQLLESGGGLVQPGGSLRLSCAASGFTFSEYEMSWVRQAPGKGLEWVSSIYSSGGWTKYTDSVKGRFTISRDNSKNTLYLQMNSLRAEDTAVYYCAKGVHYDSSGLPIDWYFDLWGRGTLVTVSS VL: not shown	~30	0.75	0.096	2.62	5.32	0.3	–	–	–	–	Kd [9]: 0.22 nM
M0070-H08 IgG (parental) (antibody, V domains shown) VH: EVQLLESGGGLVQPGGSLRLSCAASGFTFSRYWMIWVRQAPGKGLEWVSSIRSSGETKYADSVKGRFTISRDNSKNTLYLQMNSLRAEDTAVYYCARGPLSDYYDSSGYYFDAFDIWGQGTMVTVSS VL: DIQMTQSPSSLSASAGDRVTITCRASQSISSYLNWYQQKPGKAPNLLIYTTSNLQGGVPSRFSGSGSGTDFTLTISSLQPEDFATYYCQQGYSFPLTFGGGTKVEIK	–	–	–	–	–	–	3	2	2	1	–
M0072-C06 IgG (parental) (antibody, V domains shown) VH: EVQLLESGGGLVQPGGSLRLSCAASGFTFSAYIMTWVRQAPGKGLEWVSSISPSGGYTVYADSVKGRFTISRDNSKNTLYLQMNSLRAEDTAVYYCARDSGFGDPFDYWGQGTMVTVSS VL: DIQMTQSPSSLSASVGDRVTITCRASQSIRNYLNWYQQKPGKAPKLLIYAASKLEDGVPSRFSGSGTGTDFTLTIRSLQPEDFASYFCQQSYSSPGITFGPGTKVEIK	–	–	–	–	–	–	3	2	2	1	–
M0072-E03 IgG (parental) (antibody, V domains shown) VH: EVQLLESGGGLVQPGGSLRLSCAASGFTFSEYEMSWVRQAPGKGLEWVSSIYSSGGWTKYTDSVKGRFTISRDNSKNTLYLQMNSLRAEDTAVYYCAKGVHYDSSGLPIDWYFDLWGRGTLVTVSS VL: not shown	–	–	–	–	–	–	4	3	4	3	–
M0033-E05 Fab (Fab, V domains shown, soluble Fab (sFab); also called R0032-A05) VH: EVQLLESGGGLVQPGGSLRLSCAASGFTFSHYSMWWVRQAPGKGLEWVSYIGPSGGHTRYADSVKGRFTISRDNSKNTLYLQMNSLRAEDTAVYYCARGLYYYDSSSVTHAFDLWGQGTMVTVSS VL: DIQMTQSPSSLSASVGDRVTISCRASQGITNYLVWFQQKPGKAPRLLIYDASTLESGVPSRFSGSGSGTDFTLTISSLQPEDFATYYCQQADGFPLTFGEGTKVEMKR	–	–	0.87	–	–	5.5	–	–	–	–	–
M0070-H08 Fab (Fab, V domains shown, soluble Fab (sFab); also called R0032-A07) VH: EVQLLESGGGLVQPGGSLRLSCAASGFTFSRYWMIWVRQAPGKGLEWVSSIRSSGETKYADSVKGRFTISRDNSKNTLYLQMNSLRAEDTAVYYCARGPLSDYYDSSGYYFDAFDIWGQGTMVTVSS VL: DIQMTQSPSSLSASAGDRVTITCRASQSISSYLNWYQQKPGKAPNLLIYTTSNLQGGVPSRFSGSGSGTDFTLTISSLQPEDFATYYCQQGYSFPLTFGGGTKVEIKR	–	3.3	0.36	3.24	4.83	1.1	–	–	–	–	Kd [9]: 0.39 nM

Second part, led by results:

IGF-I stimulated Ba/F3 cell proliferation, sFab at 50 µg/ml [1] [% inhibition]	Kd [2] [nM]	Kd [3] [nM]	Kd [4] [nM]	Kd [5] [nM]	Kd [8] [nM]	competition score [12] [score 0-5]	competition score [13] [score 0-5]	competition score [14] [score 0-5]	competition score [15] [score 0-5]	Binder	also measured
~30	0.58	0.56	3.99	6.36	1.4	–	–	–	–	M0072-G06 Fab (Fab, V domains shown, soluble Fab (sFab); also called R0032-C05) VH: EVQLLESGGGLVQPGGSLRLSCAASGFTFSEYVMWWVRQAPGKGLEWVSVISPSGGYTVYADSVKGRFTISRDNSKNTLYLQMNSLRAEDTAVYYCARDRGGATTLDYWGQGTLVTVSS VL: DIQMTQSPSTLSASVGDRVTITCRASQTISSWLAWYQQKPGKAPKLMIYKAASLGSEVPSRFSGSGSGTEFTLTISSLQPEDFSTYYCQQYKTYPVTFGQGTRLEIKR	IC50, IGF-II stimulated Ba/F3 cell proliferation (MTS) [6]: 8.7 µg/mL; IC50, IGF-IIE stimulated Ba/F3 cell proliferation (MTS) [7]: 2.5 µg/mL; Kd [9]: 0.89 nM
–	–	–	–	–	–	2	2	1	1	M0072-G06 IgG (parental) (antibody, V domains shown) VH: EVQLLESGGGLVQPGGSLRLSCAASGFTFSEYVMWWVRQAPGKGLEWVSVISPSGGYTVYADSVKGRFTISRDNSKNTLYLQMNSLRAEDTAVYYCARDRGGATTLDYWGQGTLVTVSS VL: DIQMTQSPSTLSASVGDRVTITCRASQTISSWLAWYQQKPGKAPKLMIYKAASLGSEVPSRFSGSGSGTEFTLTISSLQPEDFSTYYCQQYKTYPVTFGQGTRLEIK	–
–	–	–	–	29.3	–	–	–	–	–	M0080-G03 Fab (Fab, V domains shown) VH: EVQLLESGGGLVQPGGSLRLSCAASGFTFSFYQMMWVRQAPGKGLEWVSSISPSGGRTYYADSVKGRFTISRDNSKNTLYLQMNSLRAEDTAVYYCAKDIGLGYCSSTSCYTGTPLDYWGQGTLVTVSS VL: not shown	Kd [11]: 21.2 nM
–	–	–	–	20.2	–	–	–	–	–	M0073-C11 Fab (Fab, V domains shown) VH: EVQLLESGGGLVQPGGSLRLSCAASGFTFSPYDMWWVRQAPGKGLEWVSSISSSGGITAYADSVKGRFTISRDNSKNTLYLQMNSLRAEDTAVYYCARAGYSSSWGYYYYGMDVWGQGTTVTVSS VL: QSALTQPPSVSVSPGQTASITCSGDRLGDKYASWYQQKPGQSPVLVIYQDTKRPSGIPERFSGSNSGSTATLTISGTQAMDEADYYCQAWDSSTVVFGGGTKLTVL	Kd [11]: 19.1 nM
